Measured values taken from paper PMC5457145 (Science Advances, 2017).
Residue numbers refer to the chain shown, from its start. Names and notes keep the numbering of the source. One block for each binder: values may come before it. Ends that are not written are not given here.

Tests used:
crystal structure = target: the molecule itself; experiment: crystal structure
[1] = target: T1, His6Sumo-TPR2 TPD N176H/R67A (rice, UniProt Q5NBT9 1-209, N176H | R67A); experiment: AlphaScreen or HTRF
T1 sequence (looked up): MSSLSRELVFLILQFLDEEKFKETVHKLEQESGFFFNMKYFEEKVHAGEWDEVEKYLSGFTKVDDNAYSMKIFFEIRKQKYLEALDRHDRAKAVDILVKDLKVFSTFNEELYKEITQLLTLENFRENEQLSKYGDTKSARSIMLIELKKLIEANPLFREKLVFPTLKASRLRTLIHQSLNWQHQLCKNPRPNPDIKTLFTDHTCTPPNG

His6Sumo-TPR2 TPD N180A = target: T2, His6Sumo-TPR2 TPD N180A (rice, UniProt Q5NBT9 1-209, N180A); experiment: AlphaScreen or HTRF
T2 sequence (looked up): T1 sequence (looked up) with A67R, H176N, N180A

[2] = target: T3, His6Sumo-TPR2 TPD N176H/Y68R (rice, UniProt Q5NBT9 1-209, N176H | Y68R); experiment: AlphaScreen or HTRF
T3 sequence (looked up): T1 sequence (looked up) with A67R, Y68R

[3] = target: T4, His6Sumo-TPR2 TPD L179A/I195A (rice, UniProt Q5NBT9 1-209, L179A | I195A); experiment: AlphaScreen or HTRF
T4 sequence (looked up): T1 sequence (looked up) with A67R, H176N, L179A, I195A

[4] = target: T5, His6Sumo-TPR2 TPD L111A/L130A (rice, UniProt Q5NBT9 1-209, L111A | L130A); experiment: AlphaScreen or HTRF
T5 sequence (looked up): T1 sequence (looked up) with A67R, L111A, L130A, H176N

His6Sumo-TPR2 TPD W181A = target: T6, His6Sumo-TPR2 TPD W181A (rice, UniProt Q5NBT9 1-209, W181A); experiment: AlphaScreen or HTRF
T6 sequence (looked up): T1 sequence (looked up) with A67R, H176N, W181A

His6Sumo-TPR2 TPD L198A = target: T7, His6Sumo-TPR2 TPD L198A (rice, UniProt Q5NBT9 1-209, L198A); experiment: AlphaScreen or HTRF
T7 sequence (looked up): T1 sequence (looked up) with A67R, H176N, L198A

[5] = target: T8, His6Sumo-TPR2 TPD N176H/Y68A (rice, UniProt Q5NBT9 1-209, N176H | Y68A); experiment: AlphaScreen or HTRF
T8 sequence (looked up): T1 sequence (looked up) with A67R, Y68A

His6Sumo-tagged TPR2 TPD [6] = target: T9, His6Sumo-tagged TPR2 TPD (rice, UniProt Q5NBT9 1-209); experiment: AlphaScreen or HTRF
T9 sequence (looked up): T1 sequence (looked up) with A67R, H176N

[7] = target: T10, His6Sumo-TPR2 TPD N176H/K71A (rice, UniProt Q5NBT9 1-209, N176H | K71A); experiment: AlphaScreen or HTRF
T10 sequence (looked up): T1 sequence (looked up) with A67R, K71A

His6Sumo-tagged TPR2 TPD [8] = target: T9, His6Sumo-tagged TPR2 TPD; experiment: AlphaScreen or HTRF; remark: listed apart in the source

B1: TPR2 TPD, TPR2(1–209), untagged (domain or fragment, rice, UniProt Q5NBT9 1-209, looked up)
chain: T1 sequence (looked up) with A67R, H176N
stoichiometry N (crystal structure): 4

B2: TPR2 TPD L111A/L130A, untagged (domain or fragment, rice, UniProt Q5NBT9 1-209, looked up)
chain: T1 sequence (looked up) with A67R, L111A, L130A, H176N
binding result (crystal structure): binds

Binder: DNLIYLDLNLA (peptide, UniProt Q2RBP2 794-804, looked up) [D53 EAR-2 peptide Q804A]
fold increase of the strength of the interaction against wild-type EAR-2 (His6Sumo-tagged TPR2 TPD [8]): > 3 fold

Other lines, results leading:

binding result [1]: binds
binding result (His6Sumo-TPR2 TPD N180A): binds
binding result [2]: binds
binding result [3]: binds
binding result [4]: binds
binding result (His6Sumo-TPR2 TPD W181A): binds
binding result (His6Sumo-TPR2 TPD L198A): binds
binding result [5]: binds
binding result (His6Sumo-tagged TPR2 TPD [6]): binds
binding result [7]: binds
Binder: DNLIYLDLNLQDWDD (peptide, UniProt Q2RBP2 794-808, looked up, also: biotinylated, site not given here) [Biotinylated D53 EAR-2 peptide, D53(794–808)]

IC50 (His6Sumo-tagged TPR2 TPD [8]): 14.3 µM
Binder: DNLIYADLNLQ (peptide, UniProt Q2RBP2 794-804, looked up) [D53 EAR-2 peptide L799A]
